# Laboratory results from the DeepSol protein solubility set.
# Assay: soluble on expression in E. coli; label from the status in PepcDB or PDB records
row,Sequence,soluble on expression in E. coli
1,MTSRGDSREKILHTASRLSQLQGYHATGLNQIVKESGAPKGSLYHFFPNGKEELAIEAVTYTGKIVEHLIQQSMDESSDPVEAIQLFIKKTASQFDNTESIKGIPVGLLASETALISEPLRTVCMKVFKSWEAVFARKLMENGFAEEEANQLGTLINSMIEGGIMLSLTNKDKTPLLLIAEQIPVLVRKKG,soluble
2,MSIAVGMIETLGFPAVVEAADSMVKAARVTLVGYEKIGSGRVTVIVRGDVSEVQASVTAGIENIRRVNGGEVLSNHIIARPHENLEYVLPIRYTEAVEQFREIVNPSIIRRAAALEHHHHHH,soluble
3,MCMSATLSRPGCGACCIAPSISSPIPGMPQGKPAGSRCVQLDDDMRCRIFGHPDRPDVCSSLQPSTELCADDREQAMTWLLKLEELTLPARLEHHHHHH,not soluble
4,MSLSKYKPTWMIDAIYKITPAQLKKLGIKAVLTDLDNTLIAWNNPDGTEELKTWLLEMKNAGITVLVVSNNKDSRIKRVVEKFDLDYVARALKPTARGFKLAEKKLGLKPSEMLMVGDQIMTDIRGANAAGIRNVLVQPIVDTDGWNTRINRFFERKIMKYLSKKHPEMTWRGGLEEGHHHHHH,soluble
5,MGSDKIHHHHHHMRSIKNITLGLATVGVMSLSGCAGDYLDTIPSTSVSETTINTSLDNLYIALNGIHKEMVSQESGYQCLGGEPGFMMSRDAEADDMNWQTNTWMKAAYLGWQCNMNETNGYNYKFWQIYYQWILNANKILAGLEEVEITSQELFDQIKGEALCIRAWAHFNLVQLYAKRYEAGKDNTQDGIPYREKAVAEEQARNSVEDVYAKINNDLDEACILLSGIKVNDVNHYSEMVAWGLKARVALAMQDYNNAAVYAGKSVSLAEAGGHRLMTGSQLNCGFANITTDTKEAMYAAMTPDDKTVYFYSYYAYMSWNFNSSAIRQGVKCINVDAYETMSETDLRRAWWDPTGEASVPSSSYAKNAYQNRKFTARSTADAVGDVAFMRLAEMYLTQAEALARAGKDSEAQAVFTKFQITRDPSYVSKGNIGDALAEEIMNSRRVELWGEGFRFL,not soluble
6,MESGPAVCCQDPRAELVDRVAAINVAHLEEADEGPEPARNGVDPPPRARAASVIPGSASRPTPVRPSLSARKFSLQERPAGSCLGAQVGPYSTGPASHISPRSWRRPTIESHRVAISDTEDCVQLNQYKLQSEIGKGAYGVVRLAYNESEDRHYAMKVLSKKKLLKQYGFPRRPPPRGSQATQGGPAKQLLPLERVYQEIAILKKLDHVNVVKLIEVLDDPAEDNLYLVFDLLRKGPVMEVPCDKPFPEEQARLYLRDIILGLEYLHCQKIVHRDIKPSNLLLGDDGHVKIADFGVSNQFEGNDAQLSSTAGTPAFMAPEAISDSGQSFSGKALDVWATGVTLYCFVYGKCPFIDDYILTLHRKIKNEAVVFPEEPEVSEDLKDLILRMLDKNPETRIGVSDIKLHPWVTKHGEEPLPSEEEHCSVVEVTEEEVKNSVRLIPSWTTVILVKSMLRKRSFGNPFEPQARREERSMSAPGSLLMKEGCGEGCKSPELPGVQEDEAAS,soluble
7,SAQKPKVDPHVGRLGYLQALVTEFQETQSQDAKEQVLANLANFAYDPSNYEYLRQLQVLDLFLDSLSEENETLVEFAIGGLCNLCPDRANKEHILHAGGVPLIINCLSSPNEETVLSAITTLMHLSPPGRSFLPELTATPVVQCMLRFSLSASARLRNLAQIFLEDFCSPRQVAEARSRQAHSALGIPLPRSVAPRQR,soluble
8,SLENENQLTHQFPTLSRWNPMFISDVHKISFHPHLQRYIGFWMGFPIRWIQIVGYIAAIDIYEGKHVLTVDDCSGMVLRVVFIIQDDFSMSKRAISMSPGNVVCVFGKINSFRSEVELIAQSFEELRDPNDEWKAWQKRMRYKKNLTKISKNHHSIIRT,soluble
9,MSGVKIAFIRHHDLWIKVDGKEKQLTKGEYITGPKWSYDGEWLAYVKGEKQNTLELYRLKDGKKVTPFHSEVSNYQWSPTENIIAFIFTGTLHTFKVEKKNADFENVSAGVGDYAWYPNGKKFLVSSEAHLLPTGWTGAQLYEVQKDAHMNPHKMKHLYALPNEHDDFLALVASGFQWSPDQKWISFLAVPTASWSADSNTLCLVRADGSRFEKVDQMLLNTQWFKWAPANNILAYIEGSGRVALENKHLKVKELPALQQNTFTPKGYVDWDFTWKNDNVIIVSRAKEAGIETPPEKRPLPSLYEIDSTSDEQHRITKPPHRQGDYHPLFMNKSNQLIWIRSDRKKADVWLAHKDGKHEMKWIENIDVPLEHHHHHH,not soluble
10,MRKMKSLYLAIQQHESRRWSPVAKVTKNGGVYRLVYTKGAWEVPGFSGFARMEDLYQEYRSAEIFPILKNRTLPRSRPEYQNYILWLGLSPEEHDELDELARSGGIRATDQIELIPAPERKEDGSFEAFFFVRGISYIPGTADIDLKIGDRLFVMKDFQNEQDSAALLLRTGDPVSVVGYAPRYYSHDLSRLAELCPPQDLLVTVERLNNNAPAAYKVLCKVVAPWPAGFDFFGSHVFDEVPKAPVSLEHHHHHH,not soluble
11,MGSSHHHHHHSSGLVPRGSSRRKSNCVKEVEKLQEKREKRRLQQQELREKRAQDVDATNPNYEIMCMIRDFRGSLDYRPLTTADPIDEHRICVCVRKRPLNKKETQMKDLDVITIPSKDVVMVHEPKQKVDLTRYLENQTFRFDYAFDDSAPNEMVYRFTARPLVETIFERGMATCFAYGQTGSGKTHTMGGDFSGKNQDCSKGIYALAARDVFLMLKKPNYKKLELQVYATFFEIYSGKVFDLLNRKTKLRVLEDGKQQVQVVGLQEREVKCVEDVLKLIDIGNSCRTSGQTSANAHSSRSHAVFQIILRRKGKLHGKFSLIDLAGNERGADTSSADRQTRLEGAEINKSLLALKECIRALGRNKPHTPFRASKLTQVLRDSFIGENSRTCMIATISPGMASCENTLNTLRYANRVKEL,soluble
12,IRRNETTEADKQIPHYEREIIYQVLYDMKKEIADLKGMMNRLAHHEQPSWPVGSDVWGNDDKRTADPKWGVSTHKAPIANAAEPVEPIQEASEYTEDPVSLEEVEKKMISLALERHGGRRKQTAEELKISERTLYRKIKEYGLE,not soluble
13,MDDSDDEYSRSHGETLTFVDPEDDGVSIGNTQDSQFAYEQFSVPTQSSQATDLLPGGTDGTTNDLPFHDVEDDESDSEKSLTEEQQQQKLPEHACRYCGISDPLCVAKCTVCRKWFCNSNDGTSGGHIVHHMVRSQHKEAYTHKDSPCGDTQLECYRCGSKNVFNLGFIPGKKDQVVVIICRTPCASIAFQNDDNWSPEDWKSVIAEKQLLSWIVNVPSEEQVARARKITATQAVRMEELWRDHPEATVDDLNKPGLDREPDHVQLRYVDAHHYSKVFRPLVAIEAEYDRRVKESASQAVGTVRWEQGLRQSVLAFFHLPQFADGVMKLAKGDELRLKHSQTVDGSEWTKIGSVFKIPDNHGDEVGIEIRGAVDKSVMESRIMFTVDVVWNATTFERQYKALAALLNDSKAISPYLYQKLLGHPAEEMMLKFDLPRRLSVAGLPELNSSQMQAVKQVLTRPLSLIQGPPGTGKTVVSATIVYHLVQKTEGNVLVCSPSNIAVDHLAEKIHKTGLKVVRLCARSREHSETTVPYLTLQHQLKVMGGAELQKLIQLKDEAGELEFKDDLRYMQLKRVKEHELLAAADVICCTCSSAADARLSKIRTRTVLIDESTQATEPEILVSIMRGVRQLVLVGDHCQLGPVVICKKAAIAGLSQSLFERLVLLGIRPFRLQVQYRMHPVLSEFPSNVFYDGSLQNGVTENDRHMTGVDWHWPKPNKPAFFWHCSGSEELSASGTSFLNRTEAANVEKLVSKLIKAGVQPHQIGVITPYEGQRSFIVNYMHTQGTLNSKLYENVEIASVDAFQGREKDYIIVTCVRSNDILGIGFLSDPRRLNVAITRAKYGLVLVGNAKVLARHDLWHELINHYKSKEMLYEGPINALKPLNLALPKATIRTKNNIAGNANRFGIKRMQYTFNEYKSNDPSQPRLPPTYSNSQNLLSMSKLAQTFNKNVPIPAHMMDPNVYAAARNQKDRRRGDQRRPPPQAEAAMDLSQGMMSQQSQQYPPQGASSQSQYLLDGASSLSGWSQSQTTTTTTRHHHHRQNRNSQQQMSQDMDDIQQKMDDLLFSQDC,not soluble
14,MKGYIHVYTGNGKGKTTAALGLATRAACAGLKVFFGQFLKGRETSELKISEFLPNFEIVQYGTPEFIVGNPSEEQIKKAKSGLADAKERLVSEKYDVVVLDELCVAIHLGLFSKEEIEDLLNVKPENVELVITGRYAPEWLIEKADLVTEMKEVKHYYQKGVVARKGIEY,soluble
15,MILIGDSGSTKTDWCIAKEGKSLGRFQTSGINPFQQDRNEIDTALRSEVLPAIGQKASSIRAVYFYGAGCTPAKAPMLNEALDSMLPHCDRIEVAGDMLGAARALCGDSEGIACILGTGSNSCLFDGREIKANVSPLGYILGDEGSGAVLGRLFIGSLLKGQMPEGLCEAFLQEYGLTSADIIESVYRKPFPNRFLAGFSPFIAQHLDIPAVYSLVQNSFDDFLVRNVLRYNRPDLPLHFIGSVAFHYREVLSSVIKKRGLTLGSVLQSPMEGLIQYHHNNHVLEHHHHHH,soluble
16,MNKPENFEEAIEIKRDPEDFSVEEIADIEPDPNGKYTIIKARVRDWDTNRIAAEIARRLHMSRKRVTFAGTKDKRAVKLQYFCINSADVDVASLSGIKDFEVIESFKSSHYLTLGDLIANHFKIRFYGIDPEMFRERYVHIISKGGFPNFFGDQRFGSRRRNTHEIGKLIIKGEYEEAVKKYIYDEKYDKESYRKHFIDTLDYKTALERFPHSLSFERSLIGYYARNGTFKGAFDSLPKNLTIMFVHAYQSYLFNRILDERLKIYGLNAVLPGDIAFPVDAYFNPDKSKPIEVNSYNREKISKLVSSDKIRISLPIFGYKTWIDNSDFGDVEYGILKEEGISQDDFKNKDFAYLSSSGDRRIISAKPINFSLENNVVEFTLGKGIYATVFLSSIGRLKENVYSDSEAELLEHHHHHH,soluble
17,MFTIKTDDLTHPAVQALVAYHISGMLQQSPPESSHALDVQKLRNPTVTFWSVWEGEQLAGIGALKLLDDKHGELKSMRTAPNYLRRGVASLILRHILQVAQDRCLHRLSLETGTQAGFTACHQLYLKHGFADCEPFADYRLDPHSRFLSLTLCENNELP,soluble
18,MTKSELMVRLAEVFAAKNGTHLLAKDVEYSVKVLVDTMTRSLARGQRIEIRGFGSFDLNHRPARIGRNPKTGERVEVPEKHVPHFKPGKELRERVDLALKENAN,not soluble
19,MKGYGEMAKNNPTRITAEPGKQEIIITREFDAPRELVFKAFTDPDLYTQWIGPRGFTTALKIFEPKNGGSWQYIQKDPEGNEYAFHGVNHDVTEPERIISTFEFEGLPEKGHVILDTARFEALPGDRTKLTSHSVFQTIEDRDGMLQSGMEEGINDSYERLDELLEKMKKLEHHHHHH,soluble
20,MGSDKIHHHHHHMRGRCPVSRAMMPTGPSGVEVSSVEMPGTKGVSVNLTRSLDGTVFTTLTRLSESVDMIDLVNEAVVQSLDEIAGYEAQLPSAKIATAMCFRAMQSITDYAPTTIEAADRLISNAYEIDPQPVFLAWRAYLRTFLLGESGGGNSQAISEEMERFINLAEEREPGNSIILSLAAFIRSMWLLSSEDALDLAQRSHALNPSNPYGISYLGMVHTHLGNFEEGYRLTRRANALTVPRGAKSSIRYVAMRSAACAGRYTEAIKIGEALGRDAPHFVAPKRLMGLLYMKCGRVADAEAMVETLRQHEPDYSMEKMRDAFRASPLLHRSKLGKAG,not soluble
21,MEIERRLVLEVVRVTEQAALAASRFAGKGDKEAVDEAGTQAMRRVLNELPIRGTVVIGEGEMDEAPMLYIGEVLGQGGLEVDIAVDPVEGTTTVAKGLPNAVTVIALSEKGGLFHAPDMYMEKLIVPPSAVGLVDLTWPVSVNLRALALALQRSVEDLVVVVLEPPRHERLIREIRKAGAPVKLISDGDVIAALAAAIRGTGVHAVMGIGGAPEGVLTAAALKCLGGEIQARFVPQNEEERERLKAMGGDEHRIYKTEDLAPGKEIVFAATGITDGDILEGVRFFGGGARTHSIVMGHATRVVRFIDSIHLFETGARVTIRV,soluble
